Test results as given in patent publication US20070065439A1.

Molecular target: Cynomolgus monkey IL-1β (cynomolgus monkey)
Experiment: Biacore low-res, mAb captured, cyno IL-1β 117 nM, 25C

Sequence of Cynomolgus monkey IL-1β (cynomolgus monkey) (P48090 117-269 limits assumed): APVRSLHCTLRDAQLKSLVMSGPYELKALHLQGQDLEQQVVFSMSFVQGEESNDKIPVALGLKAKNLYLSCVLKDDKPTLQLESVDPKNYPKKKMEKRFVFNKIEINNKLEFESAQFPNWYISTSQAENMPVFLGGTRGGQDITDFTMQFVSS

| Kd [nM] | koff [s⁻¹] | kon [M⁻¹ s⁻¹] | Binder |
| --- | --- | --- | --- |
| 0.5 | 0.00012 | 260000 | 9.19.1 (antibody, human IgG4, V domains shown) VH: QVQLVESGGGVVQPGRSLRLSCAASGFTFNNYGMHWVRQAPGKGLECVAVIWYDGGNKYYADSVKGRFAISRDNSKNTLYLQMNSLRAEDTAVYYCTAVTKLNYYYGMDVWGQRTTVTVS VL: QSALTQPASVSGSPGQSITISCTGTSSDVGGYNYVSWYQQHPGKAPKFMIYEVSNRPSGVSNRFSGSKSGNTASLTISGLQAEDEADYYCSSYTSSSILVFGGGTKLTVL |
| 1.3 | 0.0002 | 150000 | 9.26.1 (antibody, human IgG4, V domains shown) VH: QVQLVESGGGVVQPGRSLRLSCAASGFTFNNYGMHWVRQAPGKGLECVAVIWYDGGNKYYADSVKGRFAISRDNSKNTLYLQMNSLRAEDTAVYYCTAVTKLNYYYGMDVWGQGTTVTVS VL: QSALTQPASVSGSPGQSITISCTGTSSDVGGYNYVSWYQQHPGKAPKLMIYEVSNRPSGVSNRFSGSKSGNTASLTISGLQAEDEADYYCSSYTSSSILVFGGGTKLTVL |
| 4.6 | 0.0011 | 240000 | 5.5.1 (antibody, IgG4, V domains shown) VH: QVQLVESGGGVVQPGRSLRLSCAASGFTFSSYGMHWVRQAPGKGLEWVAVIWYDGDNKYYADSVQGRFTISRDNSKNTLYLQMNSLRPEDTAVYYCARERSSSWYFDYWGQGTLVTVSS VL: QSALTQPASVSGSPGQSITISCTGTSSDVGSYNLVSWYQQHPGKAPKLMIYEVSKRPSGISNRFSGSKSGNTASLTISGLQAEDEADYYCCSYAGSSTWVFGGGTKLTVL |
| 4.5 | 0.0014 | 310000 | 9.2.1 (antibody, human IgG4, V domains shown) VH: QVQLVESGGGVVQPGRSLRLSCAASGFTFNNYGMHWVRQAPGKGLECVAVIWYDGGNKYYADSVKGRFAISRDNSKNTLYLQMNSLRAEDTAVYYCTAVTTLYYYYGMDVWGQGTTVTVS VL: QSALTQPASVSGSPGQSITISCTGTSSDVGGYNYVSWYQQHPGKAPKLMIYEVSNRPSGVSNRFSGSKSGNTASLTISGLQAEDEADYYCSSYTSSSILVFGGGTKLTVL |
| 1.1 | 0.00031 | 270000 | 6.26.1 (antibody, human IgG4, V domains shown) VH: QLQLQESGPGLVKPSETLSLTCTVSGGSISRSSYYWGWIRQPPGKGLEWMGNIYYSGSTHYNPSLKSRVTISVDTSKNQFSLKLSSVTAADTAVFYCAKGREYISSSGYGMDVWGQGTTVTVS VL: SYELTQPPSVSVSPGQTASITCSGDKLGNKYVCWYQQKPGQSPVLVIFQDSRRPSGIPERFSGSNSGNTATLTISGTQAMDEADYYCQAWDTSTVIFGGGTKLTVL |
| 2.5 | 0.0012 | 470000 | 8.50.1 (antibody, human IgG4, V domains shown) VH: QVQLQESGPGLVKPSETLSLTCTVSGGSISSDYWSWIRQPAGKGLEWIGRFYNSGRTNYRPSLKSRITMSVDTSKNQFSLKLSSVTAADTAVYYCARDMYSGRGNWYFDLWGRGTLVTVS VL: SYELTQPPSVSVSPGQTARITCSGDALPKKYAYWYQQKSGQAPVLVIYEDSKRPSGIPERFSGSSSGTMATLTISGAQVEDEADYYCYSTDSSDNHRVFGGGTKLTVL |
| 5 | 0.0015 | 300000 | 9.31.1 (antibody, human IgG4, V domains shown) VH: QVQLVESGGGLVKPGGSLRLSCAASGFTFSDYYMSWIRQAPGKGLEWVSYIRSSGSTIYYADSVKGRFTISRDNAKNSLYLQMNSLRAEDTAVYYCARTPYSGRYHWYFDLWGRGTLVTVS VL: SYELTQPPSVSVSPGQTARITCSGDALPIKYAYWYQHKSGQAPVLVIYEDSKRPSGIPERFSGSSSGTMATLTISGAQVEDEADYYCYSTDSSGNHRVFGGGTKLTVL |
| 6.3 | 0.005 | 800000 | 4.20.1 (antibody, human IgG4, V domains shown) VH: QVQLVESGGGVVQPGRSLRLSCAASGFTFSNYGMNWVRQAPGKGLEWVAVIWYDGNNKSEADSVKGRFTISRDNSKNTLYLQMNSLRAEDTAVYYCARDSRSGPFDYWGQGTLVTVSS VL: EIVLTQSPDFQSVTPKEKVTITCRASQSIGSSLHWYQQKPDQSPKLLIKFASQSFSGVPSRISGSGSGTDFTLTINSLEAEDAATYYCHQSSSLPFTFGPGTKVDIK |
| 0.8 | 9.2e-05 | 110000 | 8.18.1 (antibody, human IgG4, V domains shown) VH: QVQLQESGPGLVKPSETLSLTCTVSGGSVSSGGYYWSWIRQPPGKGLEWIGYFYYSGSPNYNPSLKRRIAISVDTSKNQFSLRLSSVTAADTAVYYCARDPMHYYGMDVWGQGTTVTVSS VL: SSELTQPPSVSVFPGQTANITCSGDKLGDKFACWYQQKPGQSPVLVIYRDNKRPSGIPERFSGSNSGNTATLTISGTQAMDEADYYCQAWDSSTYVVFGGGTKLTVL |
| 0.8 | 0.00027 | 330000 | 9.11.1 (antibody, human IgG4, V domains shown) VH: QVQLVESGGGVVQPGRSLRLSCAASGFTFSVYGMHWVRQAPGKGLEWVAVIWYDGNNKYYVDSVKGRFTISRDNSKNTLYLQLNSLRAEDTAVYYCARERSSSWYFDYWGQGTLVTVSS VL: QSALTQPASVSGSSGQSITISCTGTSSDVGSYNLVSWYQQHPGKAPKLMIYEVSKRPSGVSNRFSGSKSGNTASLTISGLQAEDEADYYCCSYAGNSNWVFGGGTKLTVL |
| 3.4 | 0.00072 | 210000 | 5.36.1 (antibody, human IgG4, V domains shown) VH: QVQLQQSGPGLVKPSQTLSLTCAISGDSVSSNSAAWNWIRQSPSRGLEWLGRTYYRSKWYNDYAVSVKSRITINPDTSKNQFSLQLNSVTPEDTAVYYCAREEQQLVRYYYYYGMDVWGQGTTVTVS VL: DIVMTQTPLSLSVTPGQPASISCKSSQSLLHSDGRTYLYWYLQRPGQPPQLLIYEASYRFSGVPDRFSGSGSGTDFTLKISRVEAEDVGIYYCMQSIQLPRTFGQGTRLEIK |
